From US20190270793A1

Biological target: tau seeds in spinal cord homogenates of P301S transgenic mice (aggregated transgenic human tau) (human), P10636
Assay: cell-based or functional assay

Sequence of tau seeds in spinal cord homogenates of P301S transgenic mice (aggregated transgenic human tau) (human), P10636 (P10636 other isoform, or with tags, fused parts or gaps P301S P301S): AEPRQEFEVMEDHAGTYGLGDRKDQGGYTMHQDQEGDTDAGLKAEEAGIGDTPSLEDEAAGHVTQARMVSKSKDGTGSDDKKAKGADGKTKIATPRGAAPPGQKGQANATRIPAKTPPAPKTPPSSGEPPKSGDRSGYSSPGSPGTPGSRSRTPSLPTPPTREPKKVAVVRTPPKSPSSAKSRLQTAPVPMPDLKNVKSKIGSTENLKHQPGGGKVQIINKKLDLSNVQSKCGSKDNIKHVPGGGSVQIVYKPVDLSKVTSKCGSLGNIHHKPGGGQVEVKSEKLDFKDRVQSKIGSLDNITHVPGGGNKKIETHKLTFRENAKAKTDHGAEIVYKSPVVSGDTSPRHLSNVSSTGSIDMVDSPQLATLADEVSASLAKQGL

Tau aggregate induction (K18 aggregate formation, FRET-positive HEK cells counted by FACS): 3 nM
B1: PT82 mAb, recombinantly expressed (mouse IgG2a/kappa) (antibody, V domains shown)
VH: EVKLEESGGGLVQPGGSMKLSCVASGFTFSNYWMNWIRQSPEKGLEWVAQIRLQSDNYATRYAESVKGRFTISRDESKTSVYLQMNNLRTEDTGIYYCTGGTTYWGQGTLVTVSA
VL: DIVMTQSQKFMSTSVGDRVSITCKASQNVGTAVAWYQQKPGQSPKLLIYSASIRYTGVPDRFTGSGSGTDFTLTINYMQSEDLADYFCQQFSSYPYTFGGGTKLEIK
